Test results published in article PMC10442227, “Mechanistic and evolutionary insights into a type V-M CRISPR–Cas effector enzyme”.

Columns and labels:
Cas12m2 = target: T1, Cas12m2 (UniProt PDB:8HIO_2 1-596); test: cryo-EM; full R-loop state (state I), 17-bp heteroduplex; Mg2+, Zn2+; SPR: 20 mM HEPES pH 7.8, 150 mM KCl, 10% glycerol, 5 mM MgCl2, 1 mM DTT, 0.05% Tween-20, 25 C; cryo-EM: 20 mM HEPES-NaOH pH 7.6, 50 mM NaCl, 2 mM MgCl2, 10 uM ZnCl2; conditions: protein: recombinant; tags: N-terminal His6; crRNA guide pairs with S4 (17 bp, R-loop); S4/S5 blunt 36-bp duplex
T1 sequence: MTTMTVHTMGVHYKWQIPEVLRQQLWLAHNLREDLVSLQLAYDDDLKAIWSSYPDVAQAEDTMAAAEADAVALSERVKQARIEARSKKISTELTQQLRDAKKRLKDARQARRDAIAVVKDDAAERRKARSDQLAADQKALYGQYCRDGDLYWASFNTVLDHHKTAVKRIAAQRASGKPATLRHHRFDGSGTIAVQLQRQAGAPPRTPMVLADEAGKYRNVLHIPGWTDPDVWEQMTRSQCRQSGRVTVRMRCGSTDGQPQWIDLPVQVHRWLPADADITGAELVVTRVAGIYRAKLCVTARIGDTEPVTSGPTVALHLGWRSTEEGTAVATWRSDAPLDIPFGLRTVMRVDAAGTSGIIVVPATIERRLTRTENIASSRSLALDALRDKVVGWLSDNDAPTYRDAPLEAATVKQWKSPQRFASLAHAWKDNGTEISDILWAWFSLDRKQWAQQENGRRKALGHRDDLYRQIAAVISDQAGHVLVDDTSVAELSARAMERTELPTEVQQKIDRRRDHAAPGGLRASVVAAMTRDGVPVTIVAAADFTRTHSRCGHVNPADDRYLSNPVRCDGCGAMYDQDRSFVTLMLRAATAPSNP

Cas12m2 (binary complex) = target: T2, Cas12m2 (binary complex) (UniProt PDB:8HIO_2 1-596); test: cryo-EM; binary complex; SPR: 20 mM HEPES pH 7.8, 150 mM KCl, 10% glycerol, 5 mM MgCl2, 1 mM DTT, 0.05% Tween-20, 25 C; cryo-EM: 20 mM HEPES-NaOH pH 7.6, 50 mM NaCl, 2 mM MgCl2, 10 uM ZnCl2; conditions: protein: recombinant; tags: N-terminal His6; chain copies: 2; stem and pseudoknot scaffold
T2 sequence: T1 sequence

Cas12m2 (SPR prep) = target: T3, Cas12m2 (SPR prep) (UniProt PDB:8HIO_2 1-596); test: SPR; 5 mM Mg2+; two-state fit, 8-63 nM RNP; SPR: 20 mM HEPES pH 7.8, 150 mM KCl, 10% glycerol, 5 mM MgCl2, 1 mM DTT, 0.05% Tween-20, 25 C; cryo-EM: 20 mM HEPES-NaOH pH 7.6, 50 mM NaCl, 2 mM MgCl2, 10 uM ZnCl2; conditions: protein: recombinant; tags: pML-1B vector, nickel-purified (His); label: 5'-biotin on DNA top strand; guide pairs with DNA top strand; DNA blunt 50-bp duplex
T3 sequence: T1 sequence

B1: crRNA (56 nt) + 36-bp target DNA (TTG PAM) (mixed)
RNA: GUGUCAUAGCCCAGCUUGGCGGGCGAAGGCCAAGACGGAGAUGAGGUGCGCGUGGC
DNA 1: GATGGTGCCACGCGCACCTCATCTCCCAAATAGACA
DNA 2: TGTCTATTTGGGAGATGAGGTGCGCGTGGCACCATC
Cas12m2
  binding result: binds

B2: crRNA (56 nt) (structured_RNA)
RNA: B1 RNA
Cas12m2 (binary complex)
  binding result: binds

B3: PAM-SCNR RNA + 50-bp target dsDNA (mixed)
RNA: GUGUCAUAGCCCAGCUUGGCGGGCGAAGGCCAAGACGUCGAGUGCAAAACCUUUCG
DNA 1: CAGCTATAGTTCTCGAAAGGTTTTGCACTCGACTAAAGGACTCTATGACC
DNA 2: GGTCATAGAGTCCTTTAGTCGAGTGCAAAACCTTTCGAGAACTATAGCTG
Cas12m2 (SPR prep)
  Kd: ~2.7 nM
